Data reported in patent US20240116985A1 (published 2024).
Starred links: 1 amine or outer side, 2 acyl side, 3 side chain; linkers in the order of their positions; H or OH if unused. Positions of bridges follow the written chain, without caps; N, C: chain ends. Non-standard residues stand in square brackets, D forms with d. Primed or numbered codes have the meaning given here. *: point of attachment. PyrS2″ = (S)-3-amino-1-((pent-4-en-1-yloxy)carbonyl)pyrrolidine-3-carboxylic acid (stapling residue), C=CCCCOC(=O)N1CC[C@@](N[*:1])(C(=O)[*:2])C1; B5(17) = 2,2-bis(4-pentenyl)glycine = 2-amino-2-(pent-4-en-1-yl)hept-6-enoic acid, stitching residue, C=CCCCC(CCCC=C)(N[*:1])C(=O)[*:2]; B5(4) = 2,2-bis(4-pentenyl)glycine = 2-amino-2-(pent-4-en-1-yl)hept-6-enoic acid (stitching residue), C=CCCCC(CCCC=C)(N[*:1])C(=O)[*:2]; TfeGA = (S)-2-amino-3-((carboxymethyl)(2,2,2-trifluoroethyl)amino)propanoic acid, O=C([C@H](CN(CC(=O)[*:3])CC(F)(F)F)N[*:1])[*:2]; PyrS2 = (S)-3-amino-1-((pent-4-en-1-yloxy)carbonyl)pyrrolidine-3-carboxylic acid, C=CCCCOC(=O)N1CC[C@@](N[*:1])(C(=O)[*:2])C1; B5(22) = 2-amino-2-(pent-4-en-1-yl)hept-6-enoic acid (two alkene side chains), C=CCCCC(CCCC=C)(N[*:1])C(=O)[*:2]; B5(3) = 2,2-bis(4-pentenyl)glycine (stitching residue), C=CCCCC(CCCC=C)(N[*:1])C(=O)[*:2]; 2F3MeF = Cc1cccc(C[C@H](N[*:1])C(=O)[*:2])c1F; Phe(3-Cl) = N[C@@H](Cc1cccc(Cl)c1)C(=O)O; Phe(2-Br) = N[C@@H](Cc1ccccc1Br)C(=O)O; Phe(2-CN) = N#Cc1ccccc1C[C@H](N)C(=O)O; Phe(2-Cl) = N[C@@H](Cc1ccccc1Cl)C(=O)O; Bta = N[C@@H](Cc1csc2ccccc12)C(=O)O; αAllylPro = C=CC[C@@]1(C(=O)O)CCCN1; tBuAla = CC(C)(C)C[C@H](N)C(=O)O; 3Thi = N[C@@H](Cc1ccsc1)C(=O)O; S8 = C=CCCCCCC[C@](C)(N)C(=O)O; Thr(ol) = C[C@@H](O)[C@H](N)CO; hLeu = CC(C)CC[C@H](N)C(=O)O; Leu(ol) = CC(C)C[C@H](N)CO; Alaol = C[C@@H](CO)N*; Ms = CS(=O)(=O)*

B1: I-550 (peptide)
peptide: XDIXDDAAFNXFXQ
modifications: not fully specified; N-terminal Ac; PL3 at 1; B5 at 4; S8 at 11; 2OMeF at 12; BztA at 13; C-terminal NH2; staples PL3(1)-B5(4) and B5(4)-S8(11) by olefin metathesis

These binders were tested against T1, full-length beta-Catenin (Uniprot ID P35222) (Homo sapiens (Human), UniProt P35222 1-781) (assay: fluorescence polarization competition; full-length beta-catenin with 5FAM-labeled TCF4 residues 10-53 probe as competitor).
T1 construct: also called bCat; B-Catenin
T1 sequence: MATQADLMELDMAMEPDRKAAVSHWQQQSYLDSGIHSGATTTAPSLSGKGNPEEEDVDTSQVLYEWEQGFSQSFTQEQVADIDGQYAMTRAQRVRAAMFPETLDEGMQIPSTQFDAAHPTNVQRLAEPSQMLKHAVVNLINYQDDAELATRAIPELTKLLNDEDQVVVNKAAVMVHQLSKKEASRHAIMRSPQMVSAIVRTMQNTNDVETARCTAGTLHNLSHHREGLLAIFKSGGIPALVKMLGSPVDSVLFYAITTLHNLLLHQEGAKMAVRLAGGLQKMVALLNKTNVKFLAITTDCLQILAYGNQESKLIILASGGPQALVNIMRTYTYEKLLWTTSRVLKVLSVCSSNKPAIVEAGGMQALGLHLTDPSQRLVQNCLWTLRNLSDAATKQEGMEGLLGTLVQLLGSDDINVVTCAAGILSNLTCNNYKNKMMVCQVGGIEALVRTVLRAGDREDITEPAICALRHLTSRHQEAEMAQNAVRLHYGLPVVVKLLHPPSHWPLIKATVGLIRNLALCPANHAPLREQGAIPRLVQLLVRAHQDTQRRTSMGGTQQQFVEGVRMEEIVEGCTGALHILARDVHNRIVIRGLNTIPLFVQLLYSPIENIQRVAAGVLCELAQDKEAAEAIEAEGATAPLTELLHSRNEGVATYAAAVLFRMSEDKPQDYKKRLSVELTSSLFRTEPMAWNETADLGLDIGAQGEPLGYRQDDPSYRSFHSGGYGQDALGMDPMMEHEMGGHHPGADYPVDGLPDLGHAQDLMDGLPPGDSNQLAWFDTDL
Protocol: The plate was incubated protected from light for 60 minutes at 20° C. prior to read. Reads were performed on a CLARIOstar plate reader (BMG Labtech) in duplicate, and data were fitted to a 1:1 binding model with hill slope using an in-house script. All provided concentrations are final concentrations.

| IC50 [µM] | Binder |
| --- | --- |
| 0.03 | B1 |
| 0.035 | Ac-[αAllylPro]DI[B5(17)]DEAAFN[S8]F[Bta]Q-NH2 (staple 1-4, 4-11) [I-557] |
| 0.032 | Ac-[αAllylPro]DL[B5(4)]DEAAFN[S8]F[Bta]H-NH2 (staple 1-4, 4-11) [I-543] |

Each binder was assayed against T2, B-cat-Halo (beta-catenin HaloTag NanoBRET construct expressed in HEK293 cells) (UniProt P35222 1-781, HaloTag NanoBRET 618 Ligand bound to the HaloTag) (assay: cell-based or functional assay).
T2 sequence (looked up): T1 sequence

| NanoBRET Abs IC50 [µM] | Binder |
| --- | --- |
| 13.5 | Ac-[αAllylPro]D[tBuAla][B5(3)]D[TfeGA]AAFT[S8][Phe(2-Cl)][Bta]Q-NH2 (staple 1-4, 4-11) [I-930] |
| 33.1 | Ac-[αAllylPro]D[tBuAla][B5(22)]DDAAFN[PyrS2][3Thi][Bta]QK(PropynPEG1)-NH2 (staple 1-4, 4-11) [I-935] |
| 22.2 | Ac-[αAllylPro]D[tBuAla][B5(22)]D[TfeGA]AAFN[S8][Phe(3-Cl)][Bta]Q-NH2 (staple 1-4, 4-11) [I-933] |
| 19.2 | Ac-[αAllylPro]D[tBuAla][B5(22)]D[TfeGA]AAFN[S8][2F3MeF][Bta]Q-NH2 (staple 1-4, 4-11) [I-934] |
| 22.2 | Ac-[αAllylPro]D[tBuAla][B5(22)]DDAAFN[PyrS2][3Thi][Bta]QK(PropynPEG2)-NH2 (staple 1-4, 4-11) [I-936] |
| 25.1 | Ac-[αAllylPro]D[tBuAla][B5(22)]DDAAFN[PyrS2][3Thi][Bta]QK-NH2 (staple 1-4, 4-11) [I-939] |
| 11.4 | Ac-[αAllylPro]D[tBuAla][B5(22)]D[TfeGA]AAFN[S8][Phe(2-Br)][Bta]Q-NH2 (staple 1-4, 4-11) [I-932] |

These binders were tested against T3, B-cat-Halo (beta-catenin HaloTag NanoBRET construct expressed in HEK293 cells) (UniProt P35222 1-781) (assay: cell-based or functional assay).
T3 sequence (looked up): T1 sequence

| NanoBRET Abs IC50 [µM] | Binder |
| --- | --- |
| 21.4 | B1 |
| 12.1 | Ac-[αAllylPro]D[tBuAla][B5(4)]DDAAFN[S8]F[Bta]Q-NH2 (staple 1-4, 4-11) [I-546] |
| 3.5 | Ac-[αAllylPro]D[hLeu][B5(4)]DEAAFQ[S8]F[Bta]Q-NH2 (staple 1-4, 4-11) [I-545] |
| 15.6 | Ac-[αAllylPro]D[hLeu][B5(4)]DDAAFN[S8]F[Bta]Q-NH2 (staple 1-4, 4-11; not fully specified) [I-548] |
| 16.9 | Ac-[αAllylPro]DI[B5(17)]DEAAFN[S8]F[Bta]Q-NH2 (staple 1-4, 4-11) [I-557] |
| 17 | Ac-[αAllylPro]DL[B5(4)]DEAAFN[S8]F[Bta]H-NH2 (staple 1-4, 4-11) [I-543] |
| 4.6 | Ac-[αAllylPro]D[tBuAla][B5(4)]DEAAFQ[S8]F[Bta]Q-NH2 (staple 1-4, 4-11) [I-544] |

What follows are binders tested against T4, B-cat-Halo (beta-catenin HaloTag fusion expressed in HEK293 cells) (UniProt P35222 1-781) (assay: cell-based or functional assay).
T4 sequence (looked up): T1 sequence

| NanoBRET Abs IC50 [µM] | Binder |
| --- | --- |
| > 20 | Ms-[αAllylPro]D[tBuAla][B5(3)]D[TfeGA]AAFN[PyrS2″][3Thi][Bta]Q-NH2 (staple 1-4, 4-11) [MeSO2-PL3-Asp-Npg-B5-Asp-TfeGA-Ala-Ala-Phe-Asn-PyrS2-3Thi-BztA-Gln-NH2] |
| 10 | Ac-[αAllylPro]D[tBuAla][B5(3)]DDAAFL[PyrS2″][Phe(2-CN)][Bta]Q-NH2 (staple 1-4, 4-11) [Ac-PL3-Asp-Npg-B5-Asp-Asp-Ala-Ala-Phe-Leu-PyrS2-2CNF-BztA-Gln-NH2] |
| 7.5 | Ac-[αAllylPro]D[tBuAla][B5(3)]NDAAFL[PyrS2″][3Thi][Bta]Q-NH2 (staple 1-4, 4-11) [Ac-PL3-Asp-Npg-B5-Asn-Asp-Ala-Ala-Phe-Leu-PyrS2-3Thi-BztA-Gln-NH2] |
| 27.8 | Ac-[αAllylPro]D[tBuAla][B5(3)]NDAAFN[PyrS2″][3Thi][Bta]Q-NH2 (staple 1-4, 4-11) [Ac-PL3-Asp-Npg-B5-Asn-Asp-Ala-Ala-Phe-Asn-PyrS2-3Thi-BztA-Gln-NH2] |
| 23.4 | Ac-[αAllylPro]N[tBuAla][B5(3)]DDAAFL[PyrS2″][3Thi][Bta]Q-NH2 (staple 1-4, 4-11) [Ac-PL3-Asn-Npg-B5-Asp-Asp-Ala-Ala-Phe-Leu-PyrS2-3Thi-BztA-Gln-NH2] |
| 17.3 | Ac-[αAllylPro]N[tBuAla][B5(3)]DDAAFN[PyrS2″][3Thi][Bta]Q-NH2 (staple 1-4, 4-11) [Ac-PL3-Asn-Npg-B5-Asp-Asp-Ala-Ala-Phe-Asn-PyrS2-3Thi-BztA-Gln-NH2] |
| > 20 | Ms-[αAllylPro]D[tBuAla][B5(3)]DDAAFN[PyrS2″][3Thi][Bta]Q-NH2 (staple 1-4, 4-11) [MeSO2-PL3-Asp-Npg-B5-Asp-Asp-Ala-Ala-Phe-Asn-PyrS2-3Thi-BztA-Gln-NH2] |

Each binder was assayed against T5, B-cat-Halo (UniProt P35222 1-781) (assay: cell-based or functional assay).
T5 sequence (looked up): T1 sequence

| NanoBRET Abs IC50 [µM] | Binder |
| --- | --- |
| 12.2 | Ac-[αAllylPro]D[tBuAla][B5(4)]DDAAFT[PyrS2″][Phe(2-Cl)][Bta][Thr(ol)] (staple 1-4, 4-11) [I-1245] |
| 11.5 | Ac-[αAllylPro]D[tBuAla][B5(4)]D[TfeGA]AAFT[PyrS2″][Phe(2-Cl)][Bta]Q-NHEt (staple 1-4, 4-11) [I-1240] |
| 17.7 | Ac-[αAllylPro]D[tBuAla][B5(4)]DDAAFT[PyrS2″][Phe(2-Cl)][Bta]S-NHEt (staple 1-4, 4-11) [I-1244] |
| 15.7 | Ac-[αAllylPro]D[tBuAla][B5(4)]D[TfeGA]AAFT[PyrS2″][Phe(2-Cl)][Bta][Thr(ol)] (staple 1-4, 4-11) [I-1241] |
| > 20 | Ac-[αAllylPro]D[tBuAla][B5(4)]DDAAFT[PyrS2″][Phe(2-Cl)][Bta][Leu(ol)] (staple 1-4, 4-11) [I-1247] |
| 24.3 | Ac-[αAllylPro]D[tBuAla][B5(4)]DDAAFT[PyrS2″][Phe(2-Cl)][Bta]-Alaol (staple 1-4, 4-11) [I-1246] |
| > 20 | Ac-[αAllylPro]D[tBuAla][B5(4)]D[TfeGA]AAFT[PyrS2″][Phe(2-Cl)][Bta]-Alaol (staple 1-4, 4-11) [I-1242] |

The binders below were run against T6, beta-catenin in DLD1 TCF/LEF reporter cells (UniProt P35222 1-781) (assay: cell-based or functional assay).
T6 sequence (looked up): T1 sequence

| DLD1 reporter assay Abs IC50 [µM] | Binder |
| --- | --- |
| 7.3 | Ac-[αAllylPro]D[tBuAla][B5(4)]DDAAFT[PyrS2″][Phe(2-Cl)][Bta][Thr(ol)] (staple 1-4, 4-11) [I-1245] |
| 4.9 | Ac-[αAllylPro]D[tBuAla][B5(4)]D[TfeGA]AAFT[PyrS2″][Phe(2-Cl)][Bta]Q-NHEt (staple 1-4, 4-11) [I-1240] |
| 13.9 | Ac-[αAllylPro]D[tBuAla][B5(4)]DDAAFT[PyrS2″][Phe(2-Cl)][Bta]S-NHEt (staple 1-4, 4-11) [I-1244] |
| 3.8 | Ac-[αAllylPro]D[tBuAla][B5(4)]D[TfeGA]AAFT[PyrS2″][Phe(2-Cl)][Bta][Thr(ol)] (staple 1-4, 4-11) [I-1241] |
| > 20 | Ac-[αAllylPro]D[tBuAla][B5(4)]DDAAFT[PyrS2″][Phe(2-Cl)][Bta][Leu(ol)] (staple 1-4, 4-11) [I-1247] |
| 15.9 | Ac-[αAllylPro]D[tBuAla][B5(4)]DDAAFT[PyrS2″][Phe(2-Cl)][Bta]-Alaol (staple 1-4, 4-11) [I-1246] |
| 4.8 | Ac-[αAllylPro]D[tBuAla][B5(4)]D[TfeGA]AAFT[PyrS2″][Phe(2-Cl)][Bta]-Alaol (staple 1-4, 4-11) [I-1242] |
